Biological target: PKD2-mNeonGreen (PKD2-mNG) in cilia (Chlamydomonas)
Test: stepwise photobleaching

“PKD2-mNeonGreen (PKD2-mNG) in cilia (domain or fragment)” was tested, and the photobleaching steps per particle was 2.8 steps and the stoichiometry N was > 3.

From article PMC7265326
